# In patent US20210230266A1 (SINGAPORE HEALTH SERVICES PTE, published 2021):
# T1: FLAG-tagged human IL-11 expressed at the surface of transiently transfected cells (human, UniProt P20809 22-199)
# T1 construct: also called IL-11 expressing HEK cells; target cells expressing human IL-11 at their surface; not shown: FLAG tag added to the N-terminus
# T1 sequence: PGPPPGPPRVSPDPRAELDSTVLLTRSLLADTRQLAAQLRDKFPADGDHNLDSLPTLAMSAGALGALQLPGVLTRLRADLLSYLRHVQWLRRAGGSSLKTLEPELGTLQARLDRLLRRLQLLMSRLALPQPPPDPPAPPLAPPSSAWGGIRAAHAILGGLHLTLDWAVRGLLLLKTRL
# T2: Human IL-11 (human, UniProt P20809 22-199)
# T2 construct: Recombinant human IL-11 (GenScript Cat. No. Z03108-1) or IL-11 secreted by human cells; the mature form is said to have 178 residues; also called recombinant human IL-11; endogenously produced IL-11
# T2 sequence: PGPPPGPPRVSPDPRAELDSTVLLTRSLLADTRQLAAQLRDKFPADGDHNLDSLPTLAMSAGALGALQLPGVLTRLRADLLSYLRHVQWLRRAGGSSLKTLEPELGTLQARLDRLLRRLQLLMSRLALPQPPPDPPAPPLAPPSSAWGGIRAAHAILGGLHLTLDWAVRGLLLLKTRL
# T3: Mouse IL-11 (mouse, UniProt P47873 22-199, limits assumed)
# T3 construct: also called murine IL-11; recombinant murine IL-11
# T3 sequence (looked up): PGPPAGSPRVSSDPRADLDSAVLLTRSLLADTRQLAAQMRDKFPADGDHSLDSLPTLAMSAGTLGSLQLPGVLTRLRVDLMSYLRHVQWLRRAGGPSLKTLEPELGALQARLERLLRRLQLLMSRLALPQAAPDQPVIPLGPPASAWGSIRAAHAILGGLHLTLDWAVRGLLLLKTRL
# Key:
# [1] = target: T1, FLAG-tagged human IL-11 expressed at …; assay: flow cytometry, hybridoma supernatant on cells transfected with pB1-IL11-hum.FL; relative to the anti-FLAG positive control (100%)
# [2] = target: T1, FLAG-tagged human IL-11 expressed at …; assay: flow cytometry, hybridoma supernatant on cells transfected with pB1-IL11-hum.FL
# Human IL-11 [3] = target: T2, Human IL-11; assay: told from inhibition of MMP2 secretion by TGFB1-stimulated primary human atrial fibroblasts (FIG. 54A)
# Procedure: Primary human atrial fibroblasts were incubated with TGFB1 (5 ng/ml) and varying concentrations of humanised 3C6 clones. MMP2 secretion into the supernatant by human atrial fibroblasts was assessed to estimate the % of inhibition.
# Human IL-11 [4] = target: T2, Human IL-11; assay: SPR, BIAcore T200; sensorgrams with association to 250 s and dissociation to 750 s
# Procedure: (§1) Real-time binding kinetics of anti-IL-11 antibody BSN-3C6 to human and mouse IL-11 were measured by surface plasmon resonance (SPR) using a BIAcore T200 system (GE Healthcare, USA). The association and dissociation were measured for 250 s and 500 s respectively. The equilibrium binding constant KD was determined by the ratio of the binding rate constants kd/ka.
# Mouse IL-11 [5] = target: T3, Mouse IL-11; assay: SPR, BIAcore T200; KD from kd/ka
# Procedure: as §1
# Human IL-11 [6] = target: T2, Human IL-11; assay: SPR, BIAcore T200; KD from kd/ka
# Procedure: as §1
# Mouse IL-11 [7] = target: T3, Mouse IL-11; assay: real-time binding kinetics; the text says SPR (BIAcore T200), the sheet's axis reads Binding [nm]
# Procedure: as §1
binding relative to anti-FLAG positive control [1] [%],GMFI [2],binding result (Human IL-11 [3]),Binder,further results
,,binds,"Humanised 3C6 clone VH 2.3/VL 2.3 (antibody, V domains shown) VH: EVQLVQSGAEVKKPGASVKISCKASGYTFTDYNMDWVRQAPGQRLEWIGDINPHNGGPIYNQKFTGRVTLTVDKSASTAYMELSSLRSEDTAVYYCARGELGHWYFDVWGQGTTVTVSS VL: DIVLTQSPATLSLSPGERATLSCRASKSVSTSGYSYIHWYQQKPGQAPRLLIYLASNLDSGVPARFSGSGSGTDFTLTISSLEPEDFATYYCQHSRDLPPTFGQGTKLEIK",
,,binds,"Humanised 3C6 clone VH 2.2/VL 2.3 (antibody, V domains shown) VH: EVQLVQSGAEVKKPGASVKISCKASGYTFTDYNMDWVKQAPGQRLEWIGDINPHNGGPIYNQKFTGRATLTVDKSASTAYMELSSLRSEDTAVYYCARGELGHWYFDVWGQGTTVTVSS VL: DIVLTQSPATLSLSPGERATLSCRASKSVSTSGYSYIHWYQQKPGQAPRLLIYLASNLDSGVPARFSGSGSGTDFTLTISSLEPEDFATYYCQHSRDLPPTFGQGTKLEIK",
,,binds,"Humanised 3C6 clone VH 2.2/VL 2.4 (antibody, V domains shown) VH: EVQLVQSGAEVKKPGASVKISCKASGYTFTDYNMDWVKQAPGQRLEWIGDINPHNGGPIYNQKFTGRATLTVDKSASTAYMELSSLRSEDTAVYYCARGELGHWYFDVWGQGTTVTVSS VL: EIVLTQSPATLSLSPGERATLSCRASKSVSTSGYSYIHWYQQKPGQAPRLLIYLASNLDSGVPARFSGSGSGTDFTLTISSLEPEDFATYYCQHSRDLPPTFGQGTKLEIK",
,,binds,"Humanised 3C6 clone VH 2.3/VL 2.2 (antibody, V domains shown) VH: EVQLVQSGAEVKKPGASVKISCKASGYTFTDYNMDWVRQAPGQRLEWIGDINPHNGGPIYNQKFTGRVTLTVDKSASTAYMELSSLRSEDTAVYYCARGELGHWYFDVWGQGTTVTVSS VL: DIVLTQSPASLALSPGERATLSCRASKSVSTSGYSYIHWYQQKPGQAPRLLIYLASNLDSGVPARFSGSGSGTDFTLTISSLEEEDFATYYCQHSRDLPPTFGQGTKLEIK",
,,binds,"Humanised 3C6 clone VH 2.2/VL 2.1 (antibody, V domains shown, T0003 heads the columns Heavy chain and Light chain, but the entries are variable domains; also called 3C6 VH2.2/VL2.1) VH: EVQLVQSGAEVKKPGASVKISCKASGYTFTDYNMDWVKQAPGQRLEWIGDINPHNGGPIYNQKFTGRATLTVDKSASTAYMELSSLRSEDTAVYYCARGELGHWYFDVWGQGTTVTVSS VL: DIVLTQSPASLALSPGERATLSCRASKSVSTSGYSYIHWYQQKPGQPPRLLIYLASNLDSGVPARFSGSGSGTDFTLNIHPLEEEDFATYYCQHSRDLPPTFGQGTKLEIK",
190,239000,,"BSN-8H11 (antibody, IgG2b, V domains shown, also called A16) VH: EVQLQQSGPELVKPGASVKIPCKASGYTFTDYNIDWVKQSHGKSLEWIGDINPNYGGTLYNQKFKGKATLTVDKSSSTAYMELRSLTSEDTAVYYCARGELGHWYFDVWGTGTTVTVSS VL: DIVLTQSPASLAVSLGQRATISCRASKSVSTSDYSYMHWYQQKPGHPPKLLIYLASNLESGVPARFSGSGSGTDFTLNIHPVEEEDAATYFCQHSRDLPPTFGGGTKLEIK",

# The next lines start with the binder.
Binder,binding relative to anti-FLAG positive control [1] [%],GMFI [2],binding result (Human IL-11 [3]),further results
"BSN-2G6 (antibody, V domains shown) VH: QVQLQESGPELVKPGASVKIPCKASGYTFTDYNMDWVKQSHGKSLEWIGNINPDNGGTIYNQKFKGKATLTVDKSSSTAYMELRSLTSEDTAVYFCAREGPYGYTWFAYWGQGTLDTVSA VL: DILLTQSPAILSVSPGERVSFSCRASQSIGTSIHWYQQRTNGSPRLLIKYASESISGIPSRFSGSGSGTDFTLSINSVESEDIADYYCQQSNSWPLTFGAGTKLELK",23,28600,,
"BSN-1H2 (antibody, IgG1, V domains shown, also called A1) VH: QAQLQQSGAELARPGASVKLSCKASGYTFTSYGITWVKQRTGQGLEWIGDIYPRSGNIYYNENFKGEATLTADKSSSTAYMQLSRLTSEDSAVYFCARSGWEGWFAYWGQGTLVTVSV VL: DIVMTQSHKFMSTSVGDRVNITCKASQDVGSAVVWYQQKPGQSPKVLIYWASTRHTGVPDRFTGSGSGTDFTLTISNVQSEDLADYFCQQYSSYRTFGGGTKLEIK",157,197000,,
"BSN-5B8 (antibody, V domains shown) VH: QVQLQQSGAELARPGTSVKLSCKASGYTFTSYGISWVKQRTGQGLEWIGEIYPRSSNTYYNEKFKGKATLTADKSSSTAYMELRSLTSEDSADYFCARANWVGYFDVWGTGTTVTVSS VL: DIVMTQSHKFMSTSVGDRVTITCKASQDVGTAVAWYQQKPGQSPKLLIYWASTRLTGVPDRFTGSGSGTYFTLTINNVQSEDLADYFCQQYSSYRTFGGGTKLEIK",188,236000,,
"Humanised 3C6 clone VH 2.2/VL 2.2 (antibody, V domains shown, also called 3C6 VH2.2/VL2.2) VH: EVQLVQSGAEVKKPGASVKISCKASGYTFTDYNMDWVKQAPGQRLEWIGDINPHNGGPIYNQKFTGRATLTVDKSASTAYMELSSLRSEDTAVYYCARGELGHWYFDVWGQGTTVTVSS VL: DIVLTQSPASLALSPGERATLSCRASKSVSTSGYSYIHWYQQKPGQAPRLLIYLASNLDSGVPARFSGSGSGTDFTLTISSLEEEDFATYYCQHSRDLPPTFGQGTKLEIK",,,binds,
"BSN-3C6 (antibody, V domains shown, Mouse monoclonal antibody from a hybridoma; also called A6; anti-IL-11 antibody clone BSN-3C6) VH: EVQLQQSGPELVKPGASVKIPCKASGYTFTDYNMDWVKQSHGKSLEWIGDINPHNGGPIYNQKFTGKATLTVDKSSSTAYMELRSLTSEDTAVYYCARGELGHWYFDVWGTGTTVTVSS VL: DIVLTQSPASLAVSLGQRATISCRASKSVSTSGYSYIHWYQQKPGQPPKLLIYLASNLDSGVPARFSGSGSGTDFTLNIHPVEEEDAATYYCQHSRDLPPTFGGGTKLEIK",176,222000,,koff (Human IL-11 [4]): 0.000635 s⁻¹; kon (Human IL-11 [4]): 153000 M⁻¹ s⁻¹; Kd (Mouse IL-11 [5]): 2.38 nM; Kd (Human IL-11 [6]): 4.14 nM; koff (Mouse IL-11 [7]): 0.000112 s⁻¹; kon (Mouse IL-11 [7]): 46900 M⁻¹ s⁻¹
"BSN-7D4 (antibody, V domains shown, Mouse monoclonal antibody from a hybridoma; also called A12) VH: EVQLQQSGPELVKPGASVKISCKASGYTFTDYNMDWVKQSQGKRLEWIGDINPNYGGTIYNQKFKGKATLTVDKSSSTAYMELRSLTSEDTTVYYCTRGELGHWYFDVWGTGTTVTVSS VL: DIVLTQSPPSLTVSLGQRATISCRASKSVSASGYSYMHWYQQKPGQPPKLLIYLTSNLESGVPARFSGSGSGTDFTLNIHPVEEEDAATYYCQHSWDLPPTFGGGTKLEIK",176,221000,,
"BSN-2E1 (antibody, V domains shown) VH: QVQLQESGPELVKPGASVKIPCKASGYTFTDYNMDWVKQSHGKSLEWIGDINPHNGGPIYNQKFTGKATLTVDKSSSTAYMELRSLTSEDTAVYYCARGELGHWYFDVWGTGTTVTVSS VL: NIVMTQSPKSMSMSVGERVTLTCKASENVVTYVSWYQQKPEQSPKLLIYGASNRYTGVPDRFTGSGSATDFTLTISSVQAEDLADYHCGQGYSYPYTFGGGTKLEIK",164,206000,,
